In the data set the target is recombinant PD-L1, His tagged (human, UniProt Q9NZQ7 19-239). The data set is described as follows: pull-down.
recombinant PD-L1, His tagged, sequence (Q9NZQ7 19-239): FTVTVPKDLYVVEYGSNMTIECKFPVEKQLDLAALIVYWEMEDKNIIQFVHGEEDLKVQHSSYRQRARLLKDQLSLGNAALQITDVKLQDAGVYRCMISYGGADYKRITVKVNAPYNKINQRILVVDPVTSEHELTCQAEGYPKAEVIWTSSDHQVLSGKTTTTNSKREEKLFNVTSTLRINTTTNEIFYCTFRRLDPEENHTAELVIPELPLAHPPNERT

B1: XQ-P3 biotinylated (ssDNA)
DNA: ACCGACCGTGCTGGACTCATCTCGCTTTTTTCACGGTCCACACTACTATGAGCGAGCCTGGCG
modifications: biotin
Turning to B1, the binding result is “binds”.

These data come from publication PMC7331476.
